Publication PMC10942606

T1: SpPCNA (recombinant S. pombe PCNA) (S. pombe), Q03392
T1 chain: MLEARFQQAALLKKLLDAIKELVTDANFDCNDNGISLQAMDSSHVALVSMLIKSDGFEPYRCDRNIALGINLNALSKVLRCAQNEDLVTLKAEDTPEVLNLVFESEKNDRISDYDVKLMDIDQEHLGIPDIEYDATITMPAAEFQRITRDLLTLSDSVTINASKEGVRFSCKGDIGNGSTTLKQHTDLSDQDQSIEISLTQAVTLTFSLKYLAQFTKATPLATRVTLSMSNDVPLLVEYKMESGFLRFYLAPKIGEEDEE


Molecular target: T1, SpPCNA (recombinant S. pombe PCNA) (S. …)
Assay: ITC

Kd	dH	stoichiometry N	Binder
3.5 µM	-4.8 kCal.M^–1	0.9	KNTAQSKPQQKSIMSFFGKK (modifications not checked) [Cdc27_PIP peptide]
7.1 µM	-2.9 kCal.M^–1	0.97	QLKLNNFF (modifications not checked) [Pcf1_PIP peptide]
